This assay addresses His6-MglB (Myxococcus xanthus) (UniProt Q1DB03).

Data on 1 substance can be found in article PMC9481161.

Chain of UniProt Q1DB03 (Q1DB03 entry or part of it): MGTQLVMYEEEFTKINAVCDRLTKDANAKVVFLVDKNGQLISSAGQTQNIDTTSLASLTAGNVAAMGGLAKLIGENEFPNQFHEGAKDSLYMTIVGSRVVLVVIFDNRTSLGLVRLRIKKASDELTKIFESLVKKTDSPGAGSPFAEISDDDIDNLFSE

In the case of Strep-RomY (natural protein), the MglA GTPase activity, malachite green-based assay; 3 μM MglA-His6 mixed 1:2:2 with MglB and Strep-RomY (against ~18 with MglB alone) turned out to be 31 GTP/MglA/hr; the MglA GTPase activity, regenerative coupled enzyme assay; 3 μM MglA-His6 mixed 1:2:2 with MglB and Strep-RomY (against ~12 with MglB alone) was 25 GTP/MglA/hr.
